# B1: Sfβgly (Spodoptera frugiperda) (protein)
# chain: QQRRFPDDFLFGTATASYQIEGAWDEDGKGENIWDYMVHNTPEVIRDLSNGDIAADSYHNYKRDVEMMRELGLDAYRFSLSWARILPTGMANEVNPAGIAFYNNYIDEMLKYNITPLITLYHWDLPQKLQELGGFANPLISDWFEDYARVVFENFGDRVKMFITFNEPREICFEGYGSATKAPILNATAMGAYLCAKNLVTAHAKAYYLYDREFRPVQGGQCGITISVNWFGPATPTPEDEMAAELRRQGEWGIYAHPIFSAEGGFPKELSDKIAEKSAQQGYPWSRLPEFTEEEKAFVRGTSDLIGVNHYTAFLVSATERKGPYPVPSLLDDVDTGSWADDSWLKSASAWLTLAPNSIHTALTHLNNLYNKPVFYITENGWSTDESRENSLIDDDRIQYYRASMESLLNCLDDGINLKGYMAWSLMDNFEWMEGYIERFGLYEVDFSDPARTRTPRKAAFVYKHIIKHRVVDYEYEPETMVMTIDEGH
# notes: kinetics: gene in pAE plasmid, E. coli NovaBlue (DE3), Ni-NTA purified (His tag kept); mature protein 21-509 (borders printed for the P. pastoris pPIC9 crystal construct, 5CG0, glycosylated at N206); monomer-dimer equilibrium
# Substrate: O=[N+]([O-])c1ccc(O[C@@H]2O[C@H](CO)[C@@H](O)[C@H](O)[C@H]2O)cc1
# Test: purified protein
# Type: biochemical, Spodoptera frugiperda
# Conditions: 100 mM sodium citrate-sodium phosphate pH 6.0, 30°C
protein,measurement,value
B1,Km,2300 µM
same,kcat,0.61 s⁻¹

# Source: article PMC5148593, “Using the Amino Acid Network to Modulate the Hydrolytic Activity of β-Glycosidases” (PLoS ONE, 2016)
